Test results as given in the supplement of paper PMC10065799, “High-throughput profiling of sequence recognition by tyrosine kinases and SH2 domains using bacterial peptide display” (eLife, 2023).

Legend:
Grb2 SH2 = Grb2 SH2 (UniProt P62993); assay: SH2 binding enrichment of the phosphorylated peptide, bacterial display (enrichment ratio); higher = better substrate or ligand; peptides without Tyr show the background
SHP2-C SH2 = assay: as above
c-Src SH2 = assay: as above
Fyn = Fyn (UniProt P06241); assay: phosphorylation enrichment, bacterial display (enrichment ratio); higher = better substrate or ligand; peptides without Tyr show the background
Chain of Fyn (P06241 whole entry, looked up): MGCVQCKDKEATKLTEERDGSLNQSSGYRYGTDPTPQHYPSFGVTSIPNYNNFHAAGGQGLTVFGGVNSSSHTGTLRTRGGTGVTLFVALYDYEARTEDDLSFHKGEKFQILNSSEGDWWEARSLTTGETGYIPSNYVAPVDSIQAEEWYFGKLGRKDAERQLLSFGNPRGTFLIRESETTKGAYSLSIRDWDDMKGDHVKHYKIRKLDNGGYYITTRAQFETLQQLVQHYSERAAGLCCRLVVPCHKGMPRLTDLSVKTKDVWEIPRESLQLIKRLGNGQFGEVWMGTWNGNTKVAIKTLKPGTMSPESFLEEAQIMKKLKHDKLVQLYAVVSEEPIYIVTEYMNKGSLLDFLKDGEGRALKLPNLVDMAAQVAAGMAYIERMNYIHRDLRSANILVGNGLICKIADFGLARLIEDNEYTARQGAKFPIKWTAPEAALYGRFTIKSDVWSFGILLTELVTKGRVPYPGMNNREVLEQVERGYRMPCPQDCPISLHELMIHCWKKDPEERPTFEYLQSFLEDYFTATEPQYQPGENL

FGFR1 = FGFR1 (UniProt P11362); assay: as above
Chain of FGFR1 (P11362 whole entry, looked up): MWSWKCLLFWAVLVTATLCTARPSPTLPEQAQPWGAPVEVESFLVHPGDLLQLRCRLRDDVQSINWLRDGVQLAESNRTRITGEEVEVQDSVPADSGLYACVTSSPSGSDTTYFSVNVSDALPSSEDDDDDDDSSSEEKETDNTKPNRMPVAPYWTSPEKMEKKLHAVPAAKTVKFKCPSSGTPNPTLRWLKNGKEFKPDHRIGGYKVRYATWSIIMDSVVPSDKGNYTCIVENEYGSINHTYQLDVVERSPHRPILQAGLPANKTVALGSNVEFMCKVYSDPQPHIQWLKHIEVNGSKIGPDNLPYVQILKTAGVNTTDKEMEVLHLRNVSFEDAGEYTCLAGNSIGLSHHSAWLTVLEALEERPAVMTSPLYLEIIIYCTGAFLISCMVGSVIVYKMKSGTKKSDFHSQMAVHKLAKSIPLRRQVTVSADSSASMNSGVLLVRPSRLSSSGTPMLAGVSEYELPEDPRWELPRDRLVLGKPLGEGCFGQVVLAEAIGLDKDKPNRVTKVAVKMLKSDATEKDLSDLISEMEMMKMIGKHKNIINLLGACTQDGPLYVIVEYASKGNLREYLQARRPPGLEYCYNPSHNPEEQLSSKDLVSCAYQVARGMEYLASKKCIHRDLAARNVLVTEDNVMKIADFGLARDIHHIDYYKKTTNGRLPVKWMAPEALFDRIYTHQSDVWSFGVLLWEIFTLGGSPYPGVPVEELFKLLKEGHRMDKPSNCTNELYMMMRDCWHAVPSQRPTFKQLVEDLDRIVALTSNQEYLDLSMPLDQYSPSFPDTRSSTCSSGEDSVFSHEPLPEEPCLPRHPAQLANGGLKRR

EPHB2 = EPHB2 (UniProt P29323); assay: as above
Chain of EPHB2 (P29323 whole entry, looked up): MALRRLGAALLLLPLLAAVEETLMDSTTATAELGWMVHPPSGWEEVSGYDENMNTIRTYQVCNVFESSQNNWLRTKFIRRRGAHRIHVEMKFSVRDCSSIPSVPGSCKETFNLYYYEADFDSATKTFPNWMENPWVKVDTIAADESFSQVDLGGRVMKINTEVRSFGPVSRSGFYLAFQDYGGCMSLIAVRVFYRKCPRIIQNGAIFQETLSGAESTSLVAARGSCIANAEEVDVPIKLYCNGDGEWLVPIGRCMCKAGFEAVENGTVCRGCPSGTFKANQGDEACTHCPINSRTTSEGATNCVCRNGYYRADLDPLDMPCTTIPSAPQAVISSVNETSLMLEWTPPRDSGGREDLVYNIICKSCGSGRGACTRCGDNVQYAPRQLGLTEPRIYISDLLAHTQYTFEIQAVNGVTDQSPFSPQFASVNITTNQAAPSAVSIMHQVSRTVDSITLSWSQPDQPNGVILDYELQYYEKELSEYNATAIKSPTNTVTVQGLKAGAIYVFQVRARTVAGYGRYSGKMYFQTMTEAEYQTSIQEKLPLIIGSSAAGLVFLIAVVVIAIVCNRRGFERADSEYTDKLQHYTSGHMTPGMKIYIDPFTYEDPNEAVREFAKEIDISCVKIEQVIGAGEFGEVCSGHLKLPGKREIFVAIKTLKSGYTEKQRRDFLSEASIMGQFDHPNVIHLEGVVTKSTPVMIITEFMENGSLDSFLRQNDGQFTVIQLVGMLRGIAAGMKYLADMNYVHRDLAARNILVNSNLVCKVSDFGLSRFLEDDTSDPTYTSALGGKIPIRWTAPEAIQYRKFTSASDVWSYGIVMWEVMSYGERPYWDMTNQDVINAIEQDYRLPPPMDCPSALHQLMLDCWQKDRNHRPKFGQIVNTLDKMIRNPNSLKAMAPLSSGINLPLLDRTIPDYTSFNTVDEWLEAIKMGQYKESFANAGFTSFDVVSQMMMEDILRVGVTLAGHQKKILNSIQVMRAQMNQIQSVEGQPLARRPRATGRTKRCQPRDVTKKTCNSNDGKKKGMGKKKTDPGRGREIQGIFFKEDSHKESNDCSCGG

Fer (mouse) = assay: as above
Fes = Fes (UniProt P07332); assay: as above
Hck = Hck (UniProt P08631); assay: as above
Chain of Hck (P08631 whole entry, looked up): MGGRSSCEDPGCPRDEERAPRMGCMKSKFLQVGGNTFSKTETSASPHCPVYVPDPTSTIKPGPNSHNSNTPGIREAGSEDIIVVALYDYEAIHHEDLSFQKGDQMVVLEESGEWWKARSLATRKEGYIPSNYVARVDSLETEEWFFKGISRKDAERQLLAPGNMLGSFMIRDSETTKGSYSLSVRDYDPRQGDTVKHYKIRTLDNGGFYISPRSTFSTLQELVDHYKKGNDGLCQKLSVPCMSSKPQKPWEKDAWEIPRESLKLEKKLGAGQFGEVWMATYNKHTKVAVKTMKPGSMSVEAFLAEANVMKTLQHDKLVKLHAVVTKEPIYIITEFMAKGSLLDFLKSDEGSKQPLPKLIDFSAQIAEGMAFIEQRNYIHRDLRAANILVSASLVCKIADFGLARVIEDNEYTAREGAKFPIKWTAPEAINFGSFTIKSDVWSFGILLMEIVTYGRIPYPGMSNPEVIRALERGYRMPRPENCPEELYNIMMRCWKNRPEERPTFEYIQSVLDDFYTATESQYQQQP

MERTK = MERTK (UniProt Q12866); assay: as above
c-Abl (mouse) = assay: as above
FGFR3 = FGFR3 (UniProt P22607); assay: as above
Chain of FGFR3 (P22607 whole entry, looked up): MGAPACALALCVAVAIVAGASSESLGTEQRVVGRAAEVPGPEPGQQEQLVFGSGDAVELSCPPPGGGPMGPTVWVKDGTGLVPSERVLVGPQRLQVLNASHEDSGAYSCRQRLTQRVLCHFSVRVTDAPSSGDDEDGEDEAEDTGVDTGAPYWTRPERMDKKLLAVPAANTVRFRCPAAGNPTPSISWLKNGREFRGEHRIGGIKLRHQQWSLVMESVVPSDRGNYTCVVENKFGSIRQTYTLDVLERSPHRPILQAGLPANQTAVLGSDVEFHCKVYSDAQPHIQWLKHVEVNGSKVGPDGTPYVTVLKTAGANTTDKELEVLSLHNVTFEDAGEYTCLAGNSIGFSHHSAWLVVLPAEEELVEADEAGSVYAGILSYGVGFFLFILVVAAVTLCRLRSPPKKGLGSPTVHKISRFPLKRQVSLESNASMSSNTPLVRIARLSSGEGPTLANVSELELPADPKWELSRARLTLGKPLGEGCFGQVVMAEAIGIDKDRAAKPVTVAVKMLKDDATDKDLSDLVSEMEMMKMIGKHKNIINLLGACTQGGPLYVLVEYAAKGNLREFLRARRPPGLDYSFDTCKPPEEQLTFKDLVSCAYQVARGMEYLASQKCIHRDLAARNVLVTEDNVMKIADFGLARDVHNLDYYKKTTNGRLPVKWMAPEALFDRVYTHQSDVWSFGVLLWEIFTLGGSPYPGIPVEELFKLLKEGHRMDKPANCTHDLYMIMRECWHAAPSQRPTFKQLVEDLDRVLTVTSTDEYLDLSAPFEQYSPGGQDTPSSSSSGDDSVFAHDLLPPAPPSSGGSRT

EPHB1 = EPHB1 (UniProt P54762); assay: as above
Chain of EPHB1 (P54762 whole entry, looked up): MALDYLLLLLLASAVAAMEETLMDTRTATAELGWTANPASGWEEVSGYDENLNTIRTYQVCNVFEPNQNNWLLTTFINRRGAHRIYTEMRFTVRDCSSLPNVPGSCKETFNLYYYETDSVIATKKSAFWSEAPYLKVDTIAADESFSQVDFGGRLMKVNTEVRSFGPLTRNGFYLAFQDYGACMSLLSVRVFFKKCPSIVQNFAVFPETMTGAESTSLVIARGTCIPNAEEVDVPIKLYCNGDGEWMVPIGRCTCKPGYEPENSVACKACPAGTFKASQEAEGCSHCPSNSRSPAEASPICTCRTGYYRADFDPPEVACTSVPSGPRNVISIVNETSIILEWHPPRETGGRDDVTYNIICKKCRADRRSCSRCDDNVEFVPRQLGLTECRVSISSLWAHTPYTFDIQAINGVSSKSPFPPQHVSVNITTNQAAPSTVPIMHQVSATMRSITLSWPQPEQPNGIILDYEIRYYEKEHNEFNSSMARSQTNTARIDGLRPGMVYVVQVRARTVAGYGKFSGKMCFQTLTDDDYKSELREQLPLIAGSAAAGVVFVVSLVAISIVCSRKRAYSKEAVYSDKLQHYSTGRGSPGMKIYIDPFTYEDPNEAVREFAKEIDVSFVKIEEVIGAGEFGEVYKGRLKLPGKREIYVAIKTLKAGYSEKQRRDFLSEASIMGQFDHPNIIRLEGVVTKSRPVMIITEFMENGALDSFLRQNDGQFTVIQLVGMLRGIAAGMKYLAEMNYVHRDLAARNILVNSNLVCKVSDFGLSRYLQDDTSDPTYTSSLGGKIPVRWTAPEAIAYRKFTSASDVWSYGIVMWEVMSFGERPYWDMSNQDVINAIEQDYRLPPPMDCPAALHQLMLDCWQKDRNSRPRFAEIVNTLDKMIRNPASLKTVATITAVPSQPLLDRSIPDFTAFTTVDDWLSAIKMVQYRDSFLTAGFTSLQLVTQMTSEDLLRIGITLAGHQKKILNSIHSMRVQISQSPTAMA

c-Src = assay: as above
AncSZ = assay: as above
Jak2 = Jak2 (UniProt O60674); assay: as above
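Wherever SH2 binding enrichment of the phosphorylated peptide, bacterial display is given: peptide library displayed on the E. coli surface as eCPX fusions, selected cells deep-sequenced, score is each peptide's frequency after selection divided by its frequency in the input.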
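Wherever phosphorylation enrichment, bacterial display is given: 11-residue human phosphosite peptides and single-mutation variants displayed on the E. coli surface, counted by deep sequencing, each peptide's frequency after selection divided by its frequency in the unselected input library; frequency after pTyr selection over input frequency; kinase dosed for 20-30% of maximal phosphorylation in three min.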

Row | Sequence | SH2 binding enrichment (Grb2 SH2) | SH2 binding enrichment (SHP2-C SH2) | SH2 binding enrichment (c-Src SH2) | phosphorylation enrichment (Fyn) | phosphorylation enrichment (FGFR1) | phosphorylation enrichment (EPHB2) | phosphorylation enrichment (Fer (mouse)) | phosphorylation enrichment (Fes) | phosphorylation enrichment (Hck) | phosphorylation enrichment (MERTK) | phosphorylation enrichment (c-Abl (mouse)) | phosphorylation enrichment (FGFR3) | phosphorylation enrichment (EPHB1) | phosphorylation enrichment (c-Src) | phosphorylation enrichment (AncSZ) | phosphorylation enrichment (Jak2)
1 | VAMELYVFRGV [GAN_Y471_G474R] | 0.836 | 0.567 | 0.548 | 0.503 | 0.553 | 0.841 | 0.501 | 1.29 | 0.651 | 0.684 | 0.935 | 0.807 | 0.707 | 0.615 | 1.16 | 1.09
2 | VATRWYRSLEL [CDKL5_Y177_P180L] | 0.717 | 0.551 | 0.373 | 0.385 | 0.436 | 0.368 | 0.357 | 0.742 | 0.432 | 0.366 | 0.468 | 0.473 | 0.447 | 0.314 | 0.825 | 0.576
3 | VDHFGYNKDDK [APOB_Y740_T741N] | 0.665 | 0.595 | 0.465 | 0.485 | 0.465 | 0.528 | 0.398 | 0.874 | 0.436 | 0.434 | 0.974 | 0.493 | 0.427 | 0.485 | 1.02 | 1.1
4 | VFLARYGPAWR [CYP2D6_Y124] | 0.948 | 0.703 | 0.572 | 0.434 | 0.468 | 0.598 | 0.413 | 1.21 | 0.548 | 0.472 | 0.52 | 0.501 | 0.405 | 0.603 | 1.12 | 0.793
5 | VFSTDCFRVGG [NTRK2_Y706_Y706C_YF] | 0.87 | 1.13 | 0.816 | 0.945 | 0.565 | 0.462 | 0.761 | 0.971 | 0.685 | 0.549 | 1.04 | 0.602 | 0.588 | 0.44 | 1.02 | 1.07

Continued, in another order:

Row | SH2 binding enrichment (Grb2 SH2) | SH2 binding enrichment (SHP2-C SH2) | SH2 binding enrichment (c-Src SH2) | Sequence | phosphorylation enrichment (Fyn) | phosphorylation enrichment (FGFR1) | phosphorylation enrichment (EPHB2) | phosphorylation enrichment (Fer (mouse)) | phosphorylation enrichment (Fes) | phosphorylation enrichment (Hck) | phosphorylation enrichment (MERTK) | phosphorylation enrichment (c-Abl (mouse)) | phosphorylation enrichment (FGFR3) | phosphorylation enrichment (EPHB1) | phosphorylation enrichment (c-Src) | phosphorylation enrichment (AncSZ) | phosphorylation enrichment (Jak2)
6 | 0.792 | 0.696 | 0.446 | VAVVDYVEPSP [TXNRD2_Y70] | 0.53 | 0.603 | 0.776 | 0.52 | 0.974 | 0.454 | 0.415 | 0.627 | 0.683 | 0.561 | 0.416 | 1.35 | 0.912
7 | 0.766 | 0.805 | 3.75 | VCHELYNTIRD [PBRM1_Y54] | 0.718 | 0.489 | 0.608 | 0.683 | 0.975 | 3.01 | 0.448 | 0.978 | 0.683 | 0.546 | 1.38 | 0.898 | 0.761
8 | 0.668 | 0.705 | 0.356 | VGNAAYQAGSL [STK36_Y1181_P1185S] | 0.401 | 0.552 | 0.37 | 0.436 | 0.598 | 0.37 | 0.312 | 0.448 | 0.446 | 0.437 | 0.361 | 0.565 | 0.466
